B1: TPR t1 (parent)
chain: GACCAAUCUGCCCUCAGAGCUCGAGAACAUCUUCGGAUGCAGAGGAGGCAGGCUUCGGUGGCGCGAUAGCGCCAACGUCCUCAACCUCCAAUGCAUCCCACCACAUGAUGAUGCCUGAAGAGCCUUGGUUUUUUG

Variants of: B1
Assay: polymerase ribozyme fitness, log enrichment relative to wild type (log ratio); higher = more active; in vitro selection for triplet polymerase activity
Procedure, shortened: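 Frozen incubation at −7 °C formed the core of a single, triplicate in vitro selection round applied to PCR-built, transcribed mutant libraries of each subunit of a heterodimeric triplet polymerase ribozyme. Extended constructs were gel-excised, captured with streptavidin beads and amplified by RT-PCR, and input and output libraries were Illumina-sequenced with a filter of ≥10 input reads and ≥1 read per output. Fitness is the logarithm of genotype enrichment relative to wild-type enrichment, with inverse-variance-weighted replicate averaging, and the logarithm is base 2.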

Variant | polymerase ribozyme fitness (log ratio)
C40G C123G | 0.299
C40G C123U | 0.0444
C40G U81A | -2.17
A41U A46U G61A | -1.65
A41G G110A U125G U130G | -2.05
A41U A111G U112A A118U | -5.06
C40U G107U | -6.46
A41G G110U | -1.97
C40G U125A | -1.17
C40U G47C G58A G117A | -4.37
C40G U92G G120A | -2.62
C40G G63U | -1.85
C40G G63A | -1.91
C40U G44U U78A C89A A111C G117A G135C | -3.17
C40U A90G C123U | 1.26
A41C C99U | -5.06
A41U A74U | -1.31
A41U A74C | -4.24
C40G G71A U78G | -2.94
C40U A50G U130C | -0.13
C40U G60A A95U G117C A121C | -6.15
A41C C123A G128U | -2.19
C40U G48U C62G | -3.32
C40U C101A U112C | 0.157

Variant | polymerase ribozyme fitness (log ratio)
A41G C73U A100U | -1.33
C40G U55A G63U C124U | 0.229
C40U G117U | -1.71
A41C C82U G120A | 0.0706
A41C G47C C49U C86A | -2.65
A41C C104G G107U G110U | -7.15
C40U C98G | -6.34
A41C U92G G120U U129C | -2.62
A41G G42A | -2.57
A41G G69C G117U | -4.65
C40U A46G C64U A84C | -1.65
C40U C64U C85U A100G U106C U112C | -2.44
C40U G57U C79A | -1.3
C40G G52A G117A | -2.65
C40U G60U C94A C101G U106A | -1.22
A41G G47A C76A C101U | -3.57
C40U G60U | -0.21
C40G U87G | -1.6
A41C G63U G93C G117A U132A | -4.71
A41G C79G | -4.32
C40U C53A G60A G69U | -0.0565
C40G U54A G61C A100U | -4.7
A41G U81A G117U | -5.27
A41G C62A | -1.85

Variant | polymerase ribozyme fitness (log ratio)
A41G G45A A83C | -1.53
A41U A84C | -1.99
C40G G57A G61U G113A A121G G122A | -2.96
C40U C72A C82G C102A G120A G122U | -3.11
C40G G47U C64U G93U U129C U133G | -3.04
A41G C73U | -0.342
C40G C114U | -2.54
C40U C73G | -0.891
C40U C62A | -1.61
C40U G45A U78G U81A | -2.5
A41U A43U G113A C124A | -1.71
C40U G61C U129A | -3.93
C40U C76G G120C | 0.524
C40G G52A | -0.59
A41G C49G U59G | -1.99
C40U C72G G117U U130A | -4.89
A41C G48A G60U G135U | -2.21
C40G G61U A91U C104U | -3.37
C40U C56A | -0.555
A41C C82U C94G C97U | -6.09
C40U C62G G110U | -4.6
C40U G47A G48C G93A G122A | -1.34
C40U G42A G122U C123A | -1.77
C40U U112G | 0.138

Variant | polymerase ribozyme fitness (log ratio)
C40U U112C | 1.25
C40U U112A | 0.76
C40G G45U A90U G93U | -4.32
A41G U112A | 1.42
A41C G69U C79G U106A A121U U126G | -0.691
C40U G52U C88U | -1.18
A41C A83U | -1.29
C40U G52C G93A | -1.38
C40U C49A C79U G113U U125C | -4.03
C40U A41U C72U | -1.91
C40G G71U A105U | -3.41
A41G C76U | -0.163
C40U C70A C102A C124A | -3.93
C40U C85A G120C | -0.223
C40G G61C | -2.49
C40G G61U | -2.33
A41C C70A U81A U92C | -5.78
A41G G127C | -0.942
C40U U55C C70U | -1.45
C40U C101U C124A | 1.16
C40U G45C C49U G63U A83U C124G | -6.14
C40U G42C | -2.23
C40U G42U | -1.7
A41G C49G U55A C73U A111C | -2.46

Variant | polymerase ribozyme fitness (log ratio)
A41G C85A C124U G128C U133G | -3.58
C40U G69C C85U A100G U106C U112C | -4.82
A41G C104A G113C | -3.19
C40G G57U G63C A91C | -3.66
A41G C49U G110A G122A G127U | -5.4
A41G C56U C72A G113A G128U | -5.53
A41C C104A G122A | -3.8
C40G G58A G107U U112A G122U | -5.89
C40U C73U C80U G117U | -4.15
C40U G47U U109A U129G | -7.79
C40U G63A C102G C114G G122A | -8.78
C40U C56U U78C C89G | -2.2
C40G G48U G69U | -1.67
C40U C97U C102A A111G | -2.88
A41G G48U U112C | 0.49
C40U G44A | -0.755
A41C G117U U131A | -4.61
A41G C73G G93C | -2.94
C40U C49A C89G | -2.46
A41G G42C A46C U54A G60U G110A | -4.92
C40G U133G | -0.607
A41C G48U G61C U92A | -5.63
C40U G47C U116G U132C | -4.13
C40U C76U | -0.869

Variant | polymerase ribozyme fitness (log ratio)
A41C U81G C115A | -4.91
C40U C115U U125G U133C | -0.584
C40U G120A | 0.164
C40U G120U | -0.132
A41C C85U | -2.37
A41U A43U U54G G93A U106G | -3.16
A41G A46C | -1.95
C40U C94U G128U | -4.33
C40U A83C | -0.818
A41G G63A | -1.32
A41G G57C | -0.0815
A41G G57A C64U U130A | -1.6
C40U C49A A50G C62U A105G | -4.71
A41G A43U C70U A91C | -3.27
C40G U112C | 0.984
A41U A111U | -4.55
A41G C64U U81A | -2.25
C40U A46U G52A C70U | -3.49
C40U A84U G117U C123G | -1.94
C40U G61A U78C | -0.104
C40U A41C C79A U92A | -5.35
C40U G60C U96G A118G | -1.31
A41C G128C | -3.34
C40U C53A C73A C104U C123G | 1.24

Variant | polymerase ribozyme fitness (log ratio)
A41G G42U C73G C104A | -5.43
C40U C56A C73U C82G C97U C115U | -4.44
C40G G61A G120A | 0.253
C40U C98A A121C | -4.03
A41C U133G | -1.16
C40U A74G C79G | -2.36
C40G U78A | -0.582
A41U C49A A50U U55C G60U C115U | -5.28
C40U G42C C53A C104A | -4.78
A41C G51U | -3.29
A41C U55A G61U C102U | -3.48
C40U A90C U132A | -1.85
C40U G63C C115A G135U | -1.95
C40U C73U G93U U130G | -2.36
A41G C101A | -1.25
A41U A50U C53A | -3.22
A41G G52C A66C C97U | -3.69
A41G C89G G128C | -3.51
C40U G61C U126G | -4.04
C40U G113C | -2.55
A41U A43C C49U A50G U129C | -4.69
A41U C49G | -2.03
A41G A43U G61U C88G C94G G117A | -7.23
